Assay results from the supplement of paper PMC7877785.
± gives the uncertainty stated by the source.

Test: self-splicing fitness, log relative to wild type (ln ratio); higher = more splicing; Tetrahymena group I intron in knt gene, E. coli kanamycin selection, DiMSum; sequences stand for … in CUCUCU…GGAGGGAAAAGUUAUCAGGCAUGCACCUGGUAGCUAGUCUUUAAACCAAUAGAUUGCAUCGGUUUAAAAGGCAAGACCGUCAAAUUGCGGGAAAGGGGUCAACAGCCGUUCAGUACCAAGUCUCAGGGGAAACUUUGAGAUGGCCUUGCAAAGGGUAUGGUAAUAAGCUGACGGACAUGGUCCUAACCACGCAGCCAAGUCCUAAGUCAACAGAUCUUCUGUUGAUAUGGAUGCAGUUCACAGACUAAAUGUCGGUCGGGGAAGAUGUAUUCUUCUCAUAAGAUAUAGUCGGACCUCUCCUUAAUGGGAGCUAGCGGAUGAAGUGAUGCAACACUGGAGCCGCUGGGAACUAAUUUGUAUGCGAAAGUAUAUUGAUUAGUUUUGGAGUACUCGUGGUCG
Procedure, shortened: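 Library with all eight P1ex-region intron nucleotides randomised, intron inside the knt kanamycin-resistance gene on pET-22b(+), in E. coli BL21(DE3). Cells grew overnight at 37°C or 30°C on LB agar with or without 25 μg/mL kanamycin (plus 100 μg/mL carbenicillin, 50 μM IPTG, 0.2% rhamnose), in six replicate transformations. Pooled colonies were amplicon-sequenced on Illumina HiSeq 2500. DiMSum fitness is the error-weighted combination of wild-type-normalised replicate fold changes, kanamycin versus none.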

Sequence	self-splicing fitness (ln) (37 °C)	self-splicing fitness (ln) (30 °C)
AUGGAGCAAUAUUACGAUAC	-1.71 ± 0.48	–
AUGGAGCAAUAUUACGAUUG	-3.12 ± 0.33	-2.3 ± 0.25
AUGGAGCAAUAUUACGAUUU	-1.6 ± 0.16	-1.08 ± 0.12
AUGGAGCAAUAUUACGCACU	-0.159 ± 0.18	-0.628 ± 0.14
AUGGAGCAAUAUUACGCAUA	-1.29 ± 0.23	-1.53 ± 0.42
AUGGAGCAAUAUUACGCCAA	-1.03 ± 0.38	-1.45 ± 0.44
AUGGAGCAAUAUUACGCGAU	-1.82 ± 0.4	-2.66 ± 0.49
AUGGAGCAAUAUUACGCGUA	-2.09 ± 0.31	-2.62 ± 0.44
AUGGAGCAAUAUUACGCUAA	-1.32 ± 0.45	-3.13 ± 0.45
AUGGAGCAAUAUUACGCUAG	-1.66 ± 0.25	–
AUGGAGCAAUAUUACGCUUC	-1.28 ± 0.32	–
AUGGAGCAAUAUUACGGAAA	-2.35 ± 0.29	-3.4 ± 0.37
AUGGAGCAAUAUUACGGCAG	-1.73 ± 0.5	-3.04 ± 0.34
AUGGAGCAAUAUUACGGCCG	-0.481 ± 0.19	-1.27 ± 0.11
AUGGAGCAAUAUUACGGCUA	-0.853 ± 0.26	-0.572 ± 0.23
AUGGAGCAAUAUUACGGGAU	-0.546 ± 0.19	-3.03 ± 0.22
AUGGAGCAAUAUUACGGUCU	-2.04 ± 0.21	-1.54 ± 0.14
AUGGAGCAAUAUUACGUCGC	-1.78 ± 0.48	-2.11 ± 0.47
AUGGAGCAAUAUUACGUGAC	-2.11 ± 0.28	-1.88 ± 0.22
AUGGAGCAAUAUUACGUGAU	-0.769 ± 0.08	-2.73 ± 0.088
AUGGAGCAAUAUUACGUGUC	-2.71 ± 0.28	-4.57 ± 0.46
AUGGAGCAAUAUUACGUUCC	–	-2.13 ± 0.33
AUGUAGCAAUAUUACGAACA	0.476 ± 0.15	-0.529 ± 0.14
AUGUAGCAAUAUUACGACGA	0.039 ± 0.14	-0.828 ± 0.11
AUGUAGCAAUAUUACGACGG	-1.5 ± 0.17	-2.09 ± 0.18

Sequence	self-splicing fitness (ln) (37 °C)	self-splicing fitness (ln) (30 °C)
AUGUAGCAAUAUUACGAGUU	-0.948 ± 0.11	-1.68 ± 0.11
AUGUAGCAAUAUUACGAUGG	-2.26 ± 0.26	-3.4 ± 0.25
AUGUAGCAAUAUUACGAUUA	0.00536 ± 0.13	-0.6 ± 0.14
AUGUAGCAAUAUUACGCCUC	-1.61 ± 0.32	-2.83 ± 0.41
AUGUAGCAAUAUUACGCGAA	-1.04 ± 0.13	-0.976 ± 0.088
AUGUAGCAAUAUUACGGCUU	0.71 ± 0.12	0.168 ± 0.095
AUGUAGCAAUAUUACGGGGU	-3.12 ± 0.3	-2.77 ± 0.23
AUGUAGCAAUAUUACGGUCU	-0.014 ± 0.1	-0.562 ± 0.096
AUGUAGCAAUAUUACGUAUU	-1.44 ± 0.16	-3.48 ± 0.21
AUGUAGCAAUAUUACGUCGA	-2.06 ± 0.18	-3.98 ± 0.26
AUGUAGCAAUAUUACGUCGC	-2.35 ± 0.46	–
AUUAAGCAAUAUUACGACGC	0.175 ± 0.14	-0.389 ± 0.11
AUUAAGCAAUAUUACGAGCC	-1.69 ± 0.28	–
AUUAAGCAAUAUUACGAUAU	-0.415 ± 0.096	-1.2 ± 0.081
AUUAAGCAAUAUUACGAUCU	-0.0178 ± 0.16	0.226 ± 0.12
AUUAAGCAAUAUUACGCAAG	-1.27 ± 0.16	-1.32 ± 0.14
AUUAAGCAAUAUUACGCAGC	-2.72 ± 0.39	-3.06 ± 0.22
AUUAAGCAAUAUUACGCCAG	-1.51 ± 0.22	-2.09 ± 0.15
AUUAAGCAAUAUUACGCCGA	0.0906 ± 0.26	-1.23 ± 0.26
AUUAAGCAAUAUUACGCCGU	-0.369 ± 0.14	-0.62 ± 0.1
AUUAAGCAAUAUUACGGAGU	-0.962 ± 0.15	-1.69 ± 0.14
AUUAAGCAAUAUUACGGCAA	0.438 ± 0.15	-0.363 ± 0.12
AUUAAGCAAUAUUACGGCAG	0.0222 ± 0.13	-1 ± 0.11
AUUAAGCAAUAUUACGGCGC	0.103 ± 0.17	-0.47 ± 0.15
AUUAAGCAAUAUUACGGGAC	-0.882 ± 0.17	-3.35 ± 0.22

Sequence	self-splicing fitness (ln) (37 °C)	self-splicing fitness (ln) (30 °C)
AUUAAGCAAUAUUACGGGCA	-0.507 ± 0.12	-0.791 ± 0.12
AUUAAGCAAUAUUACGUACA	-0.1 ± 0.13	-1.2 ± 0.1
AUUAAGCAAUAUUACGUAGC	-1.84 ± 0.22	-4.67 ± 0.45
AUUAAGCAAUAUUACGUAUG	-1.47 ± 0.21	-2.74 ± 0.25
AUUAAGCAAUAUUACGUAUU	-1.85 ± 0.16	-2.15 ± 0.13
AUUAAGCAAUAUUACGUCCC	0.486 ± 0.23	-0.338 ± 0.18
AUUAAGCAAUAUUACGUCUU	-0.387 ± 0.11	-0.854 ± 0.091
AUUAAGCAAUAUUACGUGCG	0.0786 ± 0.13	-0.862 ± 0.091
AUUAAGCAAUAUUACGUGUA	-1.66 ± 0.13	-2.57 ± 0.14
AUUAAGCAAUAUUACGUUGC	-3.01 ± 0.37	-3.29 ± 0.23
AUUAAGCAAUAUUACGUUGG	-2.23 ± 0.28	-3.38 ± 0.28
AUUCAGCAAUAUUACGAAAC	-0.231 ± 0.1	-1.17 ± 0.061
AUUCAGCAAUAUUACGAACA	-0.341 ± 0.11	-0.36 ± 0.099
AUUCAGCAAUAUUACGAAUA	-1.08 ± 0.17	-2.49 ± 0.23
AUUCAGCAAUAUUACGAUGA	-0.36 ± 0.15	-0.652 ± 0.14
AUUCAGCAAUAUUACGAUGG	-0.688 ± 0.15	-2.57 ± 0.16
AUUCAGCAAUAUUACGAUGU	0.209 ± 0.099	0.173 ± 0.082
AUUCAGCAAUAUUACGCAUU	-0.427 ± 0.095	-0.534 ± 0.076
AUUCAGCAAUAUUACGCCCG	–	-1.85 ± 0.34
AUUCAGCAAUAUUACGCGCG	0.873 ± 0.15	-0.817 ± 0.12
AUUCAGCAAUAUUACGCGGA	-0.735 ± 0.14	-1.73 ± 0.19
AUUCAGCAAUAUUACGCUAG	-0.152 ± 0.14	-1.56 ± 0.13
AUUCAGCAAUAUUACGGCGC	-0.346 ± 0.13	-0.389 ± 0.099
AUUCAGCAAUAUUACGGGAU	-2.32 ± 0.2	-4.6 ± 0.27
AUUCAGCAAUAUUACGGGCC	-1.82 ± 0.34	-2.57 ± 0.33

Sequence	self-splicing fitness (ln) (37 °C)	self-splicing fitness (ln) (30 °C)
AUUCAGCAAUAUUACGUAAG	-0.22 ± 0.093	-0.27 ± 0.069
AUUCAGCAAUAUUACGUACU	-0.011 ± 0.095	0.26 ± 0.079
AUUCAGCAAUAUUACGUAGC	-1.43 ± 0.19	-3.44 ± 0.26
AUUCAGCAAUAUUACGUCCA	-1.55 ± 0.23	-1.19 ± 0.17
AUUCAGCAAUAUUACGUCUC	-0.374 ± 0.13	-1.97 ± 0.14
AUUCAGCAAUAUUACGUUUC	-2.13 ± 0.24	-3.75 ± 0.16
AUUGAGCAAUAUUACGACAC	-1.45 ± 0.22	-2.36 ± 0.19
AUUGAGCAAUAUUACGAUCU	-0.471 ± 0.14	-1.28 ± 0.11
AUUGAGCAAUAUUACGAUGU	-1.41 ± 0.16	-2.26 ± 0.11
AUUGAGCAAUAUUACGCACA	-1.41 ± 0.24	-1.81 ± 0.16
AUUGAGCAAUAUUACGCAUA	-2.47 ± 0.24	-3 ± 0.21
AUUGAGCAAUAUUACGCGUG	-2.32 ± 0.23	-2.28 ± 0.16
AUUGAGCAAUAUUACGCUGG	-1.24 ± 0.25	-2.76 ± 0.34
AUUGAGCAAUAUUACGGAUA	-1.57 ± 0.25	-2.15 ± 0.28
AUUGAGCAAUAUUACGGCAC	-0.518 ± 0.33	-3.48 ± 0.37
AUUGAGCAAUAUUACGGCAG	-1.38 ± 0.27	-2.56 ± 0.18
AUUGAGCAAUAUUACGGGAU	-1.96 ± 0.15	-3.29 ± 0.23
AUUGAGCAAUAUUACGGUAU	-1.59 ± 0.18	-2.06 ± 0.13
AUUGAGCAAUAUUACGGUUC	-2.16 ± 0.25	-3.69 ± 0.33
AUUGAGCAAUAUUACGUCGA	-1.18 ± 0.25	-3.47 ± 0.31
AUUGAGCAAUAUUACGUUCG	-1.14 ± 0.14	-1.65 ± 0.13
AUUGAGCAAUAUUACGUUCU	-1.22 ± 0.15	-2.53 ± 0.14
